Patent US20190112365A1 (EISAI R AND D MANAGEMENT, published 2019)
Where a chain is given by its changes, count along the chain named.

T1: HVPGG site of Tau (15-mer array peptides containing HVPGG) (human)
T1 peptide: HVPGG

B1: 7G6-HCzu8-LCzu6 (antibody, human IgG1, kappa, V domains shown)
VH: QVQLVQSGAEVKKPGASVKVSCKASGYTFTTYWITWVRQAPGQGLEWMGDIYPGSSISNYAQKFQGRVTMTRDTSTSTVYMELSSLRSEDTAVYYCAREDGYDAWFAYWGQGTLVTVSS
VL: DVVMTQSPLSLPVTLGQPASISCRSSQSILHSNGNTYLEWYQQRPGQSPRLLISKVSNRFSGVPDRFSGSGSGTDFTLKISRVEAEDVGVYYCFQGSHVPFTFGQGTKLEIKR
modifications: N-terminal pyroglutamic acid
notes: humanized, human IgG1 kappa; also called 7G6-HCzu8-LCzu6-HEK; ATCC PTA-124523
B2: recombinant ms7G6, mouse IgG2b (antibody, V domains shown)
VH: QVQLLQPGAELVKPGASVIMSCKASGYTFTTYWITWVKQRPGQGLEWIGDIYPGSSICNYNEKFKSKATLTVDTSSSTAYMQLNSLTSEDSAVYYCAREDGYDAWFAYWGQGTLVTVSA
VL: DVLMTQTPLSLPVSLGDQASISCRSSQSILHSNGNTYLEWYLQKPGQSPKLLICKVSNRFSGVPDRFSGSGSGTDFTLKISRVEAEDLGVYYCFQGSHVPFTFGSGTKLEIK
notes: Recombinant material, mouse IgG2b
B3: recombinant ms7G6, mouse IgG2a (antibody, V domains shown)
VH: B2 VH
VL: B2 VL
notes: Recombinant material, mouse IgG2a
B4: 7G6-HCzu19-LCzu12 (antibody, human IgG1, kappa, V domains shown)
VH: EVQLLESGGGLVQPGGSLRLSCAASGYTFTTYWITWVRQAPGKGLEWVSDIYPGSSICNYADKFKGRFTISRDNSKNTLYLQMNSLRAEDTAVYYCAREDGYDAWFAYWGQGTLVTVSS
VL: DVQMTQSPSSLSASVGDRVTITCRSSQSILHSNGNTYLEWYQQKPGKAPKLLICKVSNRFSGVPSRFSGSGSGTDFTLTISSLQPEDFATYYCFQGSHVPFTFGQGTKLEIKR
notes: humanized, human IgG1 kappa
B5: 7G6-HCzu20-LCzu12 (antibody, human IgG1, kappa, V domains shown)
VH: B4 VH with R98K
VL: B4 VL
notes: humanized, human IgG1 kappa
B6: 7G6-HCzu24-LCzu15 (antibody, human IgG1, kappa)
heavy: not shown
light: DVQMTQSPSSLSASVGDRVTITCRSSQSILHSNGNTYLEWYQQKPGKAPKLLISKVSNRFSGVPSRFSGSGSGTDFTLTISSLQPEDFATYYCFQGSHVPFTFGQGTKLEIKRTVAAPSVFIFPPSDEQLKSGTASVVCLLNNFYPREAKVQWKVDNALQSGNSQESVTEQDSKDSTYSLSSTLTLSKADYEKHKVYACEVTHQGLSSPVTKSFNRGEC
notes: humanized, human IgG1 kappa
B7: 7G6-HCzu24-LCzu18 (antibody, human IgG1, kappa)
heavy: not shown
light: B6 light with V2I
notes: humanized, human IgG1 kappa
B8: 7G6-HCzu25-LCzu15 (antibody, human IgG1, kappa)
heavy: not shown
light: B6 light
notes: humanized, human IgG1 kappa

What was measured:
[1] = target: T2, Human Tau 2N4R, wild type, recombinant full length (human, UniProt P10636 2-758); assay: SPR, streptavidin capture; against ms7G6
T2 construct: Full length 2N4R isoform; monomer in SPR and ELISA; heparin-induced aggregates or seeds in the functional assays; also called Tau441; Tau-441
Experimental: (§1) 400 μg of each antibody was diluted to 2 mg/mL and buffer-exchanged into 0.1 M sodium bicarbonate, pH 8.3 using 0.5 mL Zeba™ 40 kDa MWCO desalting columns (Thermo). NHS-PEG4-biotin, prepared immediately before use by dissolving in water to a 20 mM final stock concentration, was added to antibodies at a 5:1 molar ratio (biotin:MAb) and conjugated for 1 hr at room temperature. Excess biotin was removed by two sequential buffer exchanges into 1×DPBS using 0.5 mL Zeba™ 40 kDa MWCO desalting columns. For the BIAcore™ assay, antibodies were diluted to 2 μg/mL in PBS-P+/0.2% BSA (the same preparation used for the running buffer), centrifuged at 14,000 g for 5 min at room temperature, and the supernatant transferred to a new tube. Injection time was subsequently determined for each antibody to achieve a capture level of ˜225 RU.
(§2) Biotinylated humanized and mouse mAbs were captured on a streptavidin-coated chip and kₐ, kd, and KD were determined for binding to Tau (Table 11). […] The affinity of 7G6-HCzu8-LCzu6, 7G6-HCzu24-LCzu15, 7G6-HCzu24-LCzu18, 7G6-HCzu25-LCzu15, and 7G6-HCzu25-LCzu18 were all similar.

[2] = target: T2, Human Tau 2N4R, wild type, recombinant …; assay: SPR BIAcore, anti-human capture, monomeric Tau, 1:1 Langmuir
Experimental: (§3) All experiments were performed using a BIAcore™ T-100 instrument (GE Healthcare). 10 μL anti-human IgG (monoclonal mouse anti-human Fc) from human antibody capture kit (GE Healthcare) was diluted to 25 μL/mL in 200 μL final immobilization buffer (10 mM sodium acetate, pH 5.0). The flow rate was set to 5 μL/min, flowpath 1. Fifty μL N-hydroxysuccinamide (NETS) and 50 μL 1-ethyl-3-(3-dimethylaminopropyl) carbidiimide (EDC) were mixed and injected for 420 sec to activate the CM5 chip surface. The diluted antibody was injected for 360 seconds followed by 1 M ethanolamine for 420 seconds. The flowpath was then switched to flowpath 2. A new EDC/NHS mixture was prepared and the procedure was repeated for flow cell 2. The surface was conditioned by 2 injections of 30 sec using flowpath 1, 2 at 30 μL/min of 3M MgCl₂. For the anti-mouse surface, 10 μL anti-mouse IgG (polyclonal rabbit anti-mouse IgG) from mouse antibody capture kit (GE Healthcare) was diluted to 30 μL/mL in 324 μL final immobilization buffer (10 mM sodium acetate, pH 5.0). The flow rate was set to 5 μL/min, flowpath 3. Fifty μL NHS and 50 μL EDC were mixed and injected for 420 sec to activate the chip surface. The diluted antibody was injected for 420 sec. 1 M ethanolamine was injected for 420 sec. Flow path was switched to flowpath 4. A new EDC/NHS mixture was prepared and the procedure was repeated for flow cell 4. The surface was conditioned by 2 injections of 30 sec using flowpath 3, 4 at 30 μL/min of 10 mM glycine, pH 1.7.
Tau binding for humanized mAbs was analyzed by BIAcore™ in two different formats. The first format was performed as above, i.e. mAbs were captured with an immobilized species-specific anti-Fc antibody. […] In the second format, biotinylated mAbs were captured on a streptavidin-coated chip. This latter format allowed direct comparison of Tau binding affinity between humanized and the parental mouse antibody since the capture method was identical.
The final humanized mAbs were analyzed by BIAcore™ to determine the kₐ, kd, and KD for binding to Tau as above (Table 10).

[3] = target: T2, Human Tau 2N4R, wild type, recombinant …; assay: SPR BIAcore, mAb captured by anti-human IgG, Tau flowed, 1:1 Langmuir
Experimental: as §3
(§4) Binding of humanized and mouse antibodies were analyzed by surface plasmon resonance (BIAcore™) to determine their relative association rates (kₐ), dissociation rates (kd), and equilibrium binding constants (KD). Anti-mouse or anti-human antibodies were immobilized on a CM5 chip and sample mAbs were captured on the chip. 2N4R Tau was flowed over the chip and binding observed. The binding constants kₐ, kd, and KD were determined using a 1:1 Langmuir fitting model.

[4] = target: T2, Human Tau 2N4R, wild type, recombinant …; assay: SPR BIAcore, biotinylated mAb on streptavidin (CAP) chip, single cycle, 1:1 Langmuir
Experimental: as §1, §2

[5] = target: T1, HVPGG site of Tau (15-mer array …); assay: peptide microarray; HVPGG site of the fourth repeat region against HKPGG (repeat region 3)
Experimental: (§5) The diluted antibody was incubated on the chip for 16 hours at 4° C. with shaking at 140 rpm. Primary antibody was removed and the chip was washed in PBS (pH 7.4)/0.05% Tween 20. Wash buffer was removed and goat anti-mouse IgG (H+L) DyLight™680 (1:5000) and an anti-HA tag DyLight™ 800 (1:2000) in the same buffer as the primary antibody was then incubated for 45 minutes at room temperature on the chip. Detection antibody was removed and the chip was washed once again as previously. Fluorescence images were acquired on the LI-COR Odyssey™ Imaging System and the microarray data was finally analyzed using the PepSlide™ Analyser software.

[6] = target: T1, HVPGG site of Tau (15-mer array …); assay: peptide microarray; HVPGG site of the fourth repeat region against HQPGG (repeat region 1)
Experimental: as §5

[7] = target: T1, HVPGG site of Tau (15-mer array …); assay: peptide microarray; HVPGG site of the second repeat region against HKPGG (repeat region 3)
Experimental: as §5

[8] = target: T1, HVPGG site of Tau (15-mer array …); assay: peptide microarray; HVPGG site of the second repeat region against HQPGG (repeat region 1)
Experimental: as §5

[9] = target: T2, Human Tau 2N4R, wild type, recombinant …; assay: SPR BIAcore, mAb captured by anti-mouse IgG, Tau flowed, 1:1 Langmuir
Experimental: as §3
as §4, with “BIAcore™” for “surface plasmon resonance (BIAcore™)”, “(ka),” for “(kₐ),”, “model. Both 7G6-HCzu12-based mAbs had similar kₐ and kd values (Table 8). However, the kₐ of 7G6-HCzu11 was decreased, though the kd was unaffected. Therefore, human residues in the Vh3 framework impact binding to Tau.” for “model.”

[10] = target: T2, Human Tau 2N4R, wild type, recombinant …; assay: as above; remark: listed apart in the source
Experimental: as §3
as §4, with “BIAcore™” for “surface plasmon resonance (BIAcore™)”, “(ka),” for “(kₐ),”, “model. Both 7G6-HCzu12-based mAbs had similar kₐ and kd values (Table 8). However, the kₐ of 7G6-HCzu11 was decreased, though the kd was unaffected. Therefore, human residues in the Vh3 framework impact binding to Tau.” for “model.”

[11] = target: T2, Human Tau 2N4R, wild type, recombinant …; assay: SPR BIAcore, mAb captured by anti-human IgG, Tau flowed, 1:1 Langmuir; remark: listed apart in the source
Experimental: as §3
as §4, with “BIAcore™” for “surface plasmon resonance (BIAcore™)”, “(ka),” for “(kₐ),”, “model. Both 7G6-HCzu12-based mAbs had similar kₐ and kd values (Table 8). However, the kₐ of 7G6-HCzu11 was decreased, though the kd was unaffected. Therefore, human residues in the Vh3 framework impact binding to Tau.” for “model.”

T2 sequence (P10636 other isoform, or with tags, fused parts or gaps limits assumed): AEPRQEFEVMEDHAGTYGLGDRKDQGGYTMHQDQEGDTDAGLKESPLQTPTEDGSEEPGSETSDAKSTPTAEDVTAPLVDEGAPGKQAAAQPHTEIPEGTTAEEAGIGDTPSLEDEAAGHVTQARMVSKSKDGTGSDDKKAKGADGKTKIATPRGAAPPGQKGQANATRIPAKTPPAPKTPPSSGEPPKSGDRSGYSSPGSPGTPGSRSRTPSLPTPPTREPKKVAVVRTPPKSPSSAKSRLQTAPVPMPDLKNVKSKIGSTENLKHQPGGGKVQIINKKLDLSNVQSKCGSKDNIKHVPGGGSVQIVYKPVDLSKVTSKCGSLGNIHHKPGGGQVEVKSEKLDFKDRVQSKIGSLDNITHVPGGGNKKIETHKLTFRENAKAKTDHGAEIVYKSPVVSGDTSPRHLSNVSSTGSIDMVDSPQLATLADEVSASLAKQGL

Binder | fold drop in affinity [1] [fold] | Kd [2] [pM] | koff [2] [s⁻¹] | kon [2] [M⁻¹ s⁻¹] | Kd [4] [pM] | koff [4] [s⁻¹] | kon [4] [M⁻¹ s⁻¹] | also measured
B1 | ~1.4 | 150 | 0.00022 | 1.49e+06 | 91.5 | 0.000258 | 2.82e+06 | Kd [3]: 96.8 pM; koff [3]: 0.00021 s⁻¹; kon [3]: 2.17e+06 M⁻¹ s⁻¹; fold preference in binding (average signal intensities) [5]: 95 fold; fold preference in binding (average signal intensities) [6]: 99 fold; fold preference in binding (average signal intensities) [7]: 104 fold; fold preference in binding (average signal intensities) [8]: 108 fold
B2 |  |  |  |  |  |  |  | Kd [9]: 4170 pM; koff [9]: 0.00156 s⁻¹; kon [9]: 373000 M⁻¹ s⁻¹; Kd [10]: 4170 pM; koff [10]: 0.00156 s⁻¹; kon [10]: 373000 M⁻¹ s⁻¹
B3 |  |  |  |  |  |  |  | Kd [9]: 2720 pM; koff [9]: 0.0015 s⁻¹; kon [9]: 549000 M⁻¹ s⁻¹; Kd [10]: 2720 pM; koff [10]: 0.0015 s⁻¹; kon [10]: 549000 M⁻¹ s⁻¹
B4 |  |  |  |  |  |  |  | Kd [11]: 121 pM; koff [11]: 0.000152 s⁻¹; kon [11]: 1.25e+06 M⁻¹ s⁻¹
B5 |  |  |  |  |  |  |  | Kd [11]: 119 pM; koff [11]: 0.000136 s⁻¹; kon [11]: 1.14e+06 M⁻¹ s⁻¹
B6 | ~1.4 | 130 | 0.00011 | 809000 | 89.8 | 0.000487 | 5.42e+06 | 
B7 | ~1.4 | 90 | 9e-05 | 948000 | 79.7 | 0.000304 | 3.81e+06 | 
B8 | ~1.4 | 130 | 0.00013 | 985000 | 99.8 | 0.00027 | 2.71e+06 | 
